Test results taken from US8034572B2, “Receptor for GDNF family ligands” (priority 2006, dated 2011).

What was measured:
SHEP cells = experiment: SHEP cell adhesion and spreading assay on immobilized proteins; assay type: cell-based, human; settings: protein immobilized on plastic microplate
Procedure: Cell adhesion assays were essentially performed as described elsewhere (Weinacker et al., 1994). To prepare protein-coated surfaces the protein of interest (10 μg/ml in PBS) was applied to 96-well ELISA (Greiner) plates or to glass cover slips for 12-18 hours at +4° C. After incubation, the surfaces were washed with PBS and blocked with 1% globulin-free BSA for two hours. Some GDNF coated surfaces were incubated with 20 μg/ml of G-90 (Amgen) GDNF function-blocking antibodies (Xu et al., 1998) for 2 hours at room temperature.
Subconfluent SHEP cells were harvested in PBS supplemented with 10 mM EDTA for 5 min at 37° C. Cells were washed with incubation buffer (RPMI 1640, 0.2% BSA, 15 mM HEPES pH 7.2) and 10000-40000 cells/well plated on the protein coated surface. Plates were centrifuged for 5 min at 10 g and incubated for one hour at 37° C. in 5% CO2. After incubation cells were washed with PBS, fixed with methanol supplemented with crystal violet for 15 min at room temperature and washed again with PBS. The remaining cells were counted using a Leica DMIRB inverted microscope with 10× objective in 5 fields per well.
Some cells were pretreated with heparinase III, PI-PLC (see above), 0.3 U/ml chodroitinase ABC for one hour at 37° C., 5% CO2, or with 20 μg/ml of NCAM blocking antibodies (AB5032, Chemicon Inc.) for 15-30 min on ice.
After one hour of incubation in serum-free medium unattached cells were removed by washing. The remaining cells were stained and counted on Leica DMIRB inverted microscope with a 10× objective in 5 fields per well and the resulting cell number was calculated for the whole well.
Live SHEP cells spreading on immobilized GDNF were imaged for 20 minutes using the Till imaging system with an Imago-QE digital camera (Till Photonics) equipped with heating (+37° C.) and CO2 supply (5%) chambers.

[1] = tested on: E15 mouse cortical neurons; experiment: Cortical neurons migration assay (transfilter); assay type: cell-based; settings: 16 hours
Procedure: Cortical lobes from E15 mouse brains were dissected under a stereomicroscope and dissociated using a 20 G needle and a syringe in DMEM containing 10% FCS. The cortical preparation was spun down at 1000 rpm for 5 min and the pellet was washed with culture medium containing serum. The pellet was carefully resuspended and the preparation was allowed to sediment for five more minutes before the cleared supernatant was collected. The cells in the supernatant were allowed to recover in serum-containing DMEM for 30-60 min. Recovered cells were washed once with the assay medium (DMEM with 10 mg/ml BSA, L-glutamine and antibiotics) and resuspended in the same medium.
Transwell filters (Costar) with 12-μm pore size or polycarbonate filters saturated with 100 μg/ml poly-L-lysine were coated with GDNF or ΔN-GDNF in 1 μM, 10 μM and 100 μM concentrations overnight at 4° C. and equilibrated with assay medium 30 min in +37° C. incubator prior to use. The spontaneous and random migratory activity of neural cells was controlled with uncoated filters.
Embryonic cortical cells were plated on the filters at 150000 cells per filter and left to migrate for 16 hours. […] The number of cells that had migrated to the coated surface of the filters was calculated using the inverted light microscope Olympus IX71.

B1: GDNF: Glial cell line-derived neurotrophic factor, secreted growth factor, GDNF family ligand (protein)
chain: SPDKQMAVLPRRERNRQAAAANPENSRGKGRRGQRGKNRGCVLTAIHLNVTDLGLGYETKEELIFRYCSGSCDAAETTYDKILKNLSRNRRLVSDKVGQACCRPIAFDDDLSFLDDNLVYHILRKHSAKRCGCI
adherence and spreading of SHEP cells on immobilized protein (SHEP cells): induced adherence and spreading | migration of syndecan-3-deficient embryonic cortical neurons ([1]; filters coated with GDNF): strongly impaired | migration of wild type embryonic cortical cells ([1]; filters coated with protein): stimulated massive migration
